The record followed here is patent US20260137794A1, “LIGAND-DRUG CONJUGATE AND USE THEREOF” (SYSTIMMUNE, INC., priority 2022, published 2026).

The target in the experiment is recombinant human CD33 protein (human, UniProt P20138 18-259, limits assumed). Kind of experiment: ELISA, recombinant human CD33 coated on the plate, antibody as comparator. (In general: In an ELISA, binding on a coated surface is turned into a signal by an enzyme label.)
Sequence of recombinant human CD33 protein (P20138 18-259 limits assumed): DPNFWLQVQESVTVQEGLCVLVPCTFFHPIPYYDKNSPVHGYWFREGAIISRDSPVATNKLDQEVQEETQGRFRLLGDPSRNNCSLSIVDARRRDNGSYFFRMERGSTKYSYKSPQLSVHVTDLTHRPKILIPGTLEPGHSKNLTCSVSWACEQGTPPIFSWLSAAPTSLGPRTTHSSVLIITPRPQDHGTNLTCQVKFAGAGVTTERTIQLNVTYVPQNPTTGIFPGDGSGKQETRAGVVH

B1: anti-CD33 antibody ANTI-CD33 (antibody, human IgG1, kappa, V domains shown)
VH: EVQLVQSGAEVKKPGSSVKVSCKASGYTITDSNIHWVRQAPGQSLEWIGYIYPYNGGTDYNQKFKNRATLTVDNPTNTAYMELSSLRSEDTAFYYCVNGNPWLAYWGQGTLVTVSS
VL: DIQLTQSPSTLSASVGDRVTITCRASESLDNYGIRFLTWFQQKPGKAPKLLMYAASNQGSGVPSRFSGSGSGTEFTLTISSLQPDDFATYYCQQTKEVPWSFGQGTKVEVKR
notes: also called ANTI-CD33 mAb; naked anti-CD33 antibody
For B1, the binding result is recorded as “binds”.
